Measurements as given in patent publication US5827666A, “Synthetic multiple tandem repeat mucin and mucin-like peptides, and uses thereof” (priority 1994, dated 1998).

Assay: circular dichroism at 25-90° C.
Format: physicochemical
Details: 0.01M phosphate buffer pH 7.2

TITPPQAMGPNLVLPDQKPPSRQSQTGSKVATQRPQTNESAPRSVAPTTVGPKRIGTGDR (TITPPQAMGPNLVLPDQKPPSRQSQTGSKVATQRPQTNESAPRSVAPTTVGPKRIGTGDR) [PRN60, 60 amino acid proline-rich domain of feline leukemia virus gp-70]
decrease of CD intensity at 198 nm at 90° C. as compared to 25° C.: 29%
